Read-outs that look alike come from different tables or passages of the source. Blank lines part the entries; values can stand above or below the molecule they belong to. Residues, ends and D or L forms follow the SMILES beside them. No end group written: not given here.
What was measured:
[1] = molecular target: T1, HLA-DR0401 (Homo sapiens, UniProt P01903+P01911, A100K/A169T/F76Y/I96L/K127E/L162R/M171V/N62H/P40V/Q125Y/R42H/S133A/S149N/S66Y/V115G/V209L/W38E); assay: Kinetic analysis; assay type: binding; details: pH 5.4, read-out: Kd 0401 (dissociation rate constant)
[2] = molecular target: T2, HLA-DR0403 (Homo sapiens, UniProt P01903+P01911, A100R/A103E/A169T/F76Y/I96L/K127E/L162R/M171V/N62H/P40V/Q125Y/R42H/S133A/S149N/S66Y/V209L/W38E); assay: biochemical; assay type: binding
[3] = molecular target: HLA-DR0405 (Homo sapiens, UniProt P01903+P01911, A100R/A169T/D86S/F76Y/I96L/K127E/L162R/M171V/N62H/P40V/Q125Y/R42H/S133A/S149N/S66Y/V115G/V209L/W38E); assay: Indirect; assay type: binding; details: read-out: IC50 (uM) 0405; pH 5.4
[4] = molecular target: T1, HLA-DR0401; assay: biochemical; assay type: binding
[5] = molecular target: T2, HLA-DR0403; assay: Kinetic analysis; assay type: binding; details: pH 5.4, read-out: Kd 0403 (dissociation rate constant)
[6] = molecular target: HLA-DR0403 (DRA1*0101/DRB1*0403), soluble recombinant (human); assay: ELISA
[7] = molecular target: DR0403 (Homo sapiens, UniProt P01903+P01911, A100R/A103E/A169T/F76Y/I96L/K127E/L162R/M171V/N62H/P40V/Q125Y/R42H/S133A/S149N/S66Y/V209L/W38E); assay: 16-hour direct binding assay of biotinylated reference peptide, DR0403
[8] = molecular target: HLA-DR0403 (DRA1*0101/DRB1*0403), soluble recombinant (human); assay: ELISA; remark: listed apart in the source
[9] = molecular target: HLA-DR0401 (DRA1*0101/DRB1*0401), soluble recombinant (human); assay: ELISA

Molecule: CC[C@H](C)[C@H](NC(=O)[C@@H](NC(=O)[C@@H]1CCCN1C(=O)[C@H](C)NC(=O)[C@@H](N)C(C)C)C(C)C)C(=O)N[C@@H](CCCCN)C(=O)N[C@@H](C)C(=O)N[C@@H](CCCNC(=N)N)C(=O)N[C@@H](CCSC)C(=O)N[C@@H](CCSC)C(=O)N[C@@H](CCC(=O)O)C(=O)N[C@@H](Cc1ccc(O)cc1)C(=O)NCC(=O)N[C@H](C(=O)N[C@H](C(=O)N[C@@H](CCSC)C(=O)N[C@H](C(=O)N[C@@H](CO)C(=O)N[C@@H](Cc1ccc(O)cc1)C(=O)N[C@@H](CCC(N)=O)C(=O)O)C(C)C)[C@@H](C)O)[C@@H](C)O [GAD65p67] (H-VAPVIKARMMEYGTTMVSYQ-OH)
koff [1]: 0.000149 s⁻¹
IC50 [2]: 1610 nM
IC50 [3]: > 10 µM
IC50 [4]: 640 nM
koff [5]: 7.67e-05 s⁻¹

Molecule: biotinylated influenza hemagglutinin derived peptide HA306
EC50 [6]: > 15000 nM

Molecule: NFIRMVISNPAAT [557I]
ED50 to bind 0.05 µM DR0403 [7]: 10 nM

Molecule: CC(C)C[C@H](NC(=O)[C@H](CC(C)C)NC(=O)[C@@H]1CCCN1C(=O)[C@H](CC(=O)O)NC(=O)[C@H](Cc1ccccc1)NC(=O)[C@H](C)NC(=O)CNC(=O)[C@H](Cc1ccc(O)cc1)NC(=O)[C@@H](NC(=O)[C@@H](NC(=O)[C@@H](NC(=O)CNC(=O)[C@H](C)NC(=O)[C@@H](NC(=O)[C@H](C)NC(=O)[C@H](CO)NC(=O)[C@@H](NC(=O)[C@H](CC(C)C)NC(=O)[C@H](Cc1ccccc1)NC(=O)[C@@H]1CCCN1)C(C)C)[C@@H](C)O)[C@@H](C)O)[C@@H](C)O)C(C)C)C(=O)O [GAD65p42] (H-PFLVSATAGTTVYGAFDPLL-OH)
koff [1]: 5.42e-05 s⁻¹
IC50 [2]: 1270 nM
IC50 [3]: > 10 µM
IC50 [4]: 2070 nM
koff [5]: 2.02e-05 s⁻¹

Molecule: CFWYIPPSLRTLEDNEERMS [GAD65p64]
IC50 [8]: 1000 nM

Molecule: YAMMIARFKMFPEVKEKGMA [GAD65p32]
IC50 [8]: 10000 nM

Molecule: YDLSYDTGDKALQCGRHVDV [GAD65p55]
IC50 [9]: 10000 nM

Molecule: CACDQKPCSCSKVDVNYAFL [GAD65p10]
IC50 [8]: 3550 nM

Molecule: YAIKTGHPRYFNQLSTGLDM [GAD65p22]
IC50 [8]: 10000 nM

More lines, now with the values ahead:

IC50 [9]: 8750 nM
Molecule: GAGSLQPLALEGSLQKRGIV [preproinsulin p10]

IC50 [8]: 470 nM
Molecule: TSICSLYQLENYCN [preproinsulin p13]

koff [9]: 5.42e-05 s⁻¹
t1/2 [9]: 3.6 min
koff [8]: 2.02e-05 s⁻¹
t1/2 [8]: 9.6 min
Molecule: PFLVSATAGTTVYGAFDPLL (not fully specified) [biotinylated GAD65p42]

koff [9]: 0.000149 s⁻¹
t1/2 [9]: 77.4 min
koff [8]: 7.67e-05 s⁻¹
t1/2 [8]: 151 min
Molecule: VAPVIKARMMEYGTTMVSYQ (not fully specified) [biotinylated GAD65p67]

IC50 [9]: 220 nM
IC50 [8]: 1890 nM
Molecule: RGIVEQCCTSICSLYQLENY [preproinsulin p12]

EC50 [8]: 10 nM
Molecule: NFIRMVISNPAAT (not fully specified) [biotinylated GAD65-557I]

From article PMC3046295 (Journal of autoimmunity, 2011)
